Source: US20250262210A1 (TRUSTEES OF COLUMBIA UNIVERSITY IN THE CITY OF NEW YORK, published 2025)

How the values were obtained:
Test in all cases: IP/MS, LZTR1 R810W-FLAG, U87
TRAPPC11 = target: T1, TRAPPC11 (human, UniProt Q7Z392 1-1133, limits assumed)
T1 sequence (looked up): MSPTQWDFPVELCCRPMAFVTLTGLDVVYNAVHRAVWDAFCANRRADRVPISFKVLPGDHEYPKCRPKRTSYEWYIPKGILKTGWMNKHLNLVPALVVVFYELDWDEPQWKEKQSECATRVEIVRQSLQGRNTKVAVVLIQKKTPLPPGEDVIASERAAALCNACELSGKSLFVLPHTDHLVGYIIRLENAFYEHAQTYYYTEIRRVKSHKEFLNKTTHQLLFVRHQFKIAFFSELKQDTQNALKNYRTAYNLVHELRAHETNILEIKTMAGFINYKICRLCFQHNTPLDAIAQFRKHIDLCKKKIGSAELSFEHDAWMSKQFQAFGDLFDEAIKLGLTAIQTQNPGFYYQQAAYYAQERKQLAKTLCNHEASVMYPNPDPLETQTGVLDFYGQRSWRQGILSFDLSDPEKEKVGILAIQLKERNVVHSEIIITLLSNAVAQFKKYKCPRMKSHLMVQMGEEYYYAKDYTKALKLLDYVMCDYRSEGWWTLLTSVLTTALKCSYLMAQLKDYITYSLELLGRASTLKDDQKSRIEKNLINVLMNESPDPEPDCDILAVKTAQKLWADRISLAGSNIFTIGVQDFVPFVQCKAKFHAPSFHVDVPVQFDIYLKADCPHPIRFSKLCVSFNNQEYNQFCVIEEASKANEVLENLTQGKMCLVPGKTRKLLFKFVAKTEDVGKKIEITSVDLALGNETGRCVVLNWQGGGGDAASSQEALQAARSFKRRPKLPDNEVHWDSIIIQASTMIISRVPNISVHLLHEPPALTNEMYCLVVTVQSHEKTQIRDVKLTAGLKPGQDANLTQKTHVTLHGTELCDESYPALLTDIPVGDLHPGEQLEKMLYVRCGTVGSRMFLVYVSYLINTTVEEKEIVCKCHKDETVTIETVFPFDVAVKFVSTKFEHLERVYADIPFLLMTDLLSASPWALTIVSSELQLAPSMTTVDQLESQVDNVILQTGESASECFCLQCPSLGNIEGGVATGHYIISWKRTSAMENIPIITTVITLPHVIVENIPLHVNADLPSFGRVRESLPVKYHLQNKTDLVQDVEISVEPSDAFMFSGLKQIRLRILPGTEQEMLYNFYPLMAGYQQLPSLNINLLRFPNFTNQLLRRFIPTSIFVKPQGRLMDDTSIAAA
Summary of the method: (§1)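 Read-out: spectral counts from LC-MS/MS (Orbitrap Fusion) after MaxQuant identification. Variable modifications were Met oxidation, protein N-terminal acetylation and N/Q deamidation.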

CTDP1 = target: T2, CTDP1 (human, UniProt Q9Y5B0 1-961, limits assumed)
T2 sequence (looked up): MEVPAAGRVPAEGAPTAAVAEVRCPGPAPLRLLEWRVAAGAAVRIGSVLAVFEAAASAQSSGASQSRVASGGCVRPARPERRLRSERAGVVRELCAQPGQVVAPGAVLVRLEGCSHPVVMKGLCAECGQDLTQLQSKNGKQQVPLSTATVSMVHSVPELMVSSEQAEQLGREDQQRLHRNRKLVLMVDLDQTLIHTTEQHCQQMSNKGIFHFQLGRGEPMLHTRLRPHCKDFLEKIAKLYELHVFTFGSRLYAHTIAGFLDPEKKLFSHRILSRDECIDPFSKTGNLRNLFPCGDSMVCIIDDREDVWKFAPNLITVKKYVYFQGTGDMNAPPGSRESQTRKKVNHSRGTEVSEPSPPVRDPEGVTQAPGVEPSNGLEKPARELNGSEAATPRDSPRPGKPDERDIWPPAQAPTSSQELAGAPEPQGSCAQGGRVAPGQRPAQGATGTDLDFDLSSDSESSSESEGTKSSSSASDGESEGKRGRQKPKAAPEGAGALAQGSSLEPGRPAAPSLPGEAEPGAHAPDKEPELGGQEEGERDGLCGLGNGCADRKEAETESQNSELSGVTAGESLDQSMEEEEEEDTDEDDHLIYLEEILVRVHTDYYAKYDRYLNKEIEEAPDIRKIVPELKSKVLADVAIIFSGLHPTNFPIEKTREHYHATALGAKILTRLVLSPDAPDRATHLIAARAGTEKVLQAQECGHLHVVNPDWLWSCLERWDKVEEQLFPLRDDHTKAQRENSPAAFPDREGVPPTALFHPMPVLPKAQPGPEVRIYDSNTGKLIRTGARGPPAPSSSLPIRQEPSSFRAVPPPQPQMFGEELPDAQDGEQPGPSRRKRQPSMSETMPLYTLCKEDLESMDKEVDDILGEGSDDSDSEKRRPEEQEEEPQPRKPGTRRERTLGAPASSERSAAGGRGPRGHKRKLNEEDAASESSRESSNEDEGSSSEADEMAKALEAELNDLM
Summary of the method: as §1

INTS1 = INTS1 (human, UniProt Q8N201 1-2190)
Summary of the method: as §1

MYO10 = MYO10 (human, UniProt Q9HD67 1-2058, limits assumed)
Summary of the method: as §1

CDC42BPB = CDC42BPB (human, UniProt Q9Y5S2 1-1711)
Summary of the method: as §1

Measured: binding result

Sequence of INTS1 (Q8N201 whole entry): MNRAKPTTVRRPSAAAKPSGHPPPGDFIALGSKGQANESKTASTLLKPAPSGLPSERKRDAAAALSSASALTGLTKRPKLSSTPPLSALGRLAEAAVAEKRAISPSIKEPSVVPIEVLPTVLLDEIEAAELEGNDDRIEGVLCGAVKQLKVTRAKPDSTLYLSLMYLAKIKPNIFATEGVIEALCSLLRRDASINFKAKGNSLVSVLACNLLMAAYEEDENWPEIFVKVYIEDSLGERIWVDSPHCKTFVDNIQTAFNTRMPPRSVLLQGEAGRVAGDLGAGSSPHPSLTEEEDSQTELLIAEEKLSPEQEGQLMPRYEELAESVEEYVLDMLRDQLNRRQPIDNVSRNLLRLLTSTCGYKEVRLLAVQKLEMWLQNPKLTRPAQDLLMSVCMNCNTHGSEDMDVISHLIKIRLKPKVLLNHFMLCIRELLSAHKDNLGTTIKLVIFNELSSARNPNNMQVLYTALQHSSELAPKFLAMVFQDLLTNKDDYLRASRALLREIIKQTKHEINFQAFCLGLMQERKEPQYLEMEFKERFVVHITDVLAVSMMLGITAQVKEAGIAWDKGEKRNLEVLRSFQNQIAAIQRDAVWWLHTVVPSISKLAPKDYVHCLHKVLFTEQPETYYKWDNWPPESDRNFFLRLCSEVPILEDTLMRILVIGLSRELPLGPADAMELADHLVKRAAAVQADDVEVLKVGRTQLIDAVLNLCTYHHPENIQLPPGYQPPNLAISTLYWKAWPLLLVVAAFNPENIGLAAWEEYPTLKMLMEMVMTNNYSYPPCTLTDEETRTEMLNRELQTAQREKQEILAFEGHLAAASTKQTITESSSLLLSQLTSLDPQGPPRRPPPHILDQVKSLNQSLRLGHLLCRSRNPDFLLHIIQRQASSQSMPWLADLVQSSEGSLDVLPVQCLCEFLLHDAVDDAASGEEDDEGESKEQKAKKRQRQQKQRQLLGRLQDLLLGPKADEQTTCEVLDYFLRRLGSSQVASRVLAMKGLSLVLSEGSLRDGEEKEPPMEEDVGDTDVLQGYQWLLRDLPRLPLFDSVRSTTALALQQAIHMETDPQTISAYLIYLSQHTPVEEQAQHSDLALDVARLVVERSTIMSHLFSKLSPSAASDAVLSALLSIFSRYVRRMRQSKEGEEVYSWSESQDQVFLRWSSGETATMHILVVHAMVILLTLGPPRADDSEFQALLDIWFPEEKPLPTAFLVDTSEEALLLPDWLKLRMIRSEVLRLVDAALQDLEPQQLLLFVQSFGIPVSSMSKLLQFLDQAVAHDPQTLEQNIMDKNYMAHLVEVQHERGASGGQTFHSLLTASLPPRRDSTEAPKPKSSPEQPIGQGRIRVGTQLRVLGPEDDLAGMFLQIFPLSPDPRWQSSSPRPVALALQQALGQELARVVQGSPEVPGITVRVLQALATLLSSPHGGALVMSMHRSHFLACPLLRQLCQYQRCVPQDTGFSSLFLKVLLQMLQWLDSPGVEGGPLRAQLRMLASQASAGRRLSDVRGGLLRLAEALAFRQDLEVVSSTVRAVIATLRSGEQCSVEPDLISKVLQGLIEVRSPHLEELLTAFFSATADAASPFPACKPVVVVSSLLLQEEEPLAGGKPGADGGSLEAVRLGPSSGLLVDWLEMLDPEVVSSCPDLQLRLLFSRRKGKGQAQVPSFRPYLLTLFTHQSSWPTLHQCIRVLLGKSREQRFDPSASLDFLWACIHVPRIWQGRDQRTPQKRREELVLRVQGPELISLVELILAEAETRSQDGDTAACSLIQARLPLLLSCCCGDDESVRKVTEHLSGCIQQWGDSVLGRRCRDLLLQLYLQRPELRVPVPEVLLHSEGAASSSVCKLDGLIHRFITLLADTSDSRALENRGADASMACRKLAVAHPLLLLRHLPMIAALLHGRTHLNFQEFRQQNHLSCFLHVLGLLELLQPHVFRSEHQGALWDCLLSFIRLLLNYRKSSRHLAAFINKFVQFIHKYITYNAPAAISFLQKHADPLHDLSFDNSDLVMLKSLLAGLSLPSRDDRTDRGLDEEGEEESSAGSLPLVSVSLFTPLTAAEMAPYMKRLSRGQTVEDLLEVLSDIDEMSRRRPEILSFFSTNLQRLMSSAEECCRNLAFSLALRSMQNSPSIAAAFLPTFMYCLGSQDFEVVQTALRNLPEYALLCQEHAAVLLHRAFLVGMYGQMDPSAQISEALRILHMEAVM
Sequence of MYO10 (Q9HD67 whole entry): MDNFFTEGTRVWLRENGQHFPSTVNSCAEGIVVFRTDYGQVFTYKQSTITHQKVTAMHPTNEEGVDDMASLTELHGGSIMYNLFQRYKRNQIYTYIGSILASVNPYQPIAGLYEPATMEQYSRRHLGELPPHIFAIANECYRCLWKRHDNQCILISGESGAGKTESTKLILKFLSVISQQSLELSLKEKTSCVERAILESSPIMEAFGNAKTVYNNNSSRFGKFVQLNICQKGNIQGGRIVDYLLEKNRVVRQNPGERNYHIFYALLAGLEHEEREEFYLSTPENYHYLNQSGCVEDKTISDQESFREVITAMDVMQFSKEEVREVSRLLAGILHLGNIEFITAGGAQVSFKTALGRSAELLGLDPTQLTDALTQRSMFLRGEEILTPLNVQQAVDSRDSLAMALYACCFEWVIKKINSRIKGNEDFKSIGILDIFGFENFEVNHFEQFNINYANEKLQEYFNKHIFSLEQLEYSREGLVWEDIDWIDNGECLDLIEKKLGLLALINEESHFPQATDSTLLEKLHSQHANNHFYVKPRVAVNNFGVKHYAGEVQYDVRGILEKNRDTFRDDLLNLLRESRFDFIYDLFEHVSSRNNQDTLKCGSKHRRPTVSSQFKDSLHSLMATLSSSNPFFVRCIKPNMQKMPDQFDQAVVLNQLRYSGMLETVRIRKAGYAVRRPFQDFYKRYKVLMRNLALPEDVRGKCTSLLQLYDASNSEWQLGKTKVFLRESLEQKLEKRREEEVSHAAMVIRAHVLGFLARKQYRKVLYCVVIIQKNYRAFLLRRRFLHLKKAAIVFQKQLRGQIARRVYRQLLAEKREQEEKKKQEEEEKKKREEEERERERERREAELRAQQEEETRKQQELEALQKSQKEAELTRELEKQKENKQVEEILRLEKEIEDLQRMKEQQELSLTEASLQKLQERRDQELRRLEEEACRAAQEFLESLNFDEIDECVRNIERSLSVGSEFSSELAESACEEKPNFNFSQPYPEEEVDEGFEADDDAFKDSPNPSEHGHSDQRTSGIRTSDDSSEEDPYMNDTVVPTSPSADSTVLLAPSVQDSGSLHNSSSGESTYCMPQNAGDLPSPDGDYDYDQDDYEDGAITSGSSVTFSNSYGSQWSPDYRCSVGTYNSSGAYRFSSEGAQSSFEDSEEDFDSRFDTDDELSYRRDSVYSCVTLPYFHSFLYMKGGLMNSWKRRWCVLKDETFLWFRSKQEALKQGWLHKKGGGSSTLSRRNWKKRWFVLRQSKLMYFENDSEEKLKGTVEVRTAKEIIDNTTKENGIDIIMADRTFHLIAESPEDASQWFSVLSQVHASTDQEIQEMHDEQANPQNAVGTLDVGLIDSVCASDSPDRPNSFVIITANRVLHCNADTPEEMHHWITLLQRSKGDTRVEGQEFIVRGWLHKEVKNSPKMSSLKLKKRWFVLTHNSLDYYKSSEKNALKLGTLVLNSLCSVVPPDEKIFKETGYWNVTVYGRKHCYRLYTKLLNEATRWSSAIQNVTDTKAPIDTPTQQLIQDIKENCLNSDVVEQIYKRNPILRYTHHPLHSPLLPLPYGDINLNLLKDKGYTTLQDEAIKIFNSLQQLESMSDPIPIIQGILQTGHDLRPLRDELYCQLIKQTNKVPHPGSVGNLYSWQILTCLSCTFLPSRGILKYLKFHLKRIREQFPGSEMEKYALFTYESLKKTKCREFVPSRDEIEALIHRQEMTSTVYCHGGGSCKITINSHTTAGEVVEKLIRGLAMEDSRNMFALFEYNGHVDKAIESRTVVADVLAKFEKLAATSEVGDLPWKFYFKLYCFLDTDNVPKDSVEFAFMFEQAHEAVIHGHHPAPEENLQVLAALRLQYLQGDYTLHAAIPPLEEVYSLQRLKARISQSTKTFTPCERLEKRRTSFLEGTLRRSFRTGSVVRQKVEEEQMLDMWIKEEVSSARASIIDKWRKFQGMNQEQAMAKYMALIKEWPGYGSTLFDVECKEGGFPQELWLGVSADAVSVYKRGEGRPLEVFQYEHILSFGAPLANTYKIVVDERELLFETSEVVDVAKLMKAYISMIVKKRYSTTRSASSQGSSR

B1: LZTR1 R810W-FLAG (other, human, UniProt Q8N653 1-840, looked up)
chain: MAGPGSTGGQIGAAALAGGARSKVAPSVDFDHSCSDSVEYLTLNFGPFETVHRWRRLPPCDEFVGARRSKHTVVAYKDAIYVFGGDNGKTMLNDLLRFDVKDCSWCRAFTTGTPPAPRYHHSAVVYGSSMFVFGGYTGDIYSNSNLKNKNDLFEYKFATGQWTEWKIEGRLPVARSAHGATVYSDKLWIFAGYDGNARLNDMWTIGLQDRELTCWEEVAQSGEIPPSCCNFPVAVCRDKMFVFSGQSGAKITNNLFQFEFKDKTWTRIPTEHLLRGSPPPPQRRYGHTMVAFDRHLYVFGGAADNTLPNELHCYDVDFQTWEVVQPSSDSEVGGAEVPERACASEEVPTLTYEERVGFKKSRDVFGLDFGTTSAKQPTQPASELPSGRLFHAAAVISDAMYIFGGTVDNNIRSGEMYRFQFSCYPKCTLHEDYGRLWESRQFCDVEFVLGEKEECVQGHVAIVTARSRWLRRKITQARERLAQKLEQEAAPVPREAPGVAAGGARPPLLHVAIREAEARPFEVLMQFLYTDKIKYPRKGHVEDVLLIMDVYKLALSFQLCRLEQLCRQYIEASVDLQNVLVVCESAARLQLSQLKEHCLNFVVKESHFNQVIMMKEFERLSSPLIVEIVRRKQQPPPRTPLDQPVDIGTSLIQDMKAYLEGAGAEFCDITLLLDGHPRPAHKAILAARSSYFEAMFRSFMPEDGQVNISIGEMVPSRQAFESMLRYIYYGEVNMPPEDSLYLFAAPYYYGFYNNRLQAYCKQNLEMNVTVQNVLQILEAADKTQALDMKRHCLHIIVHQFTKVSKLPTLWSLSQQLLLDIIDSLASHISDKQCAELGADI
notes: Stably expressed in U87 cells by lentivirus; also called LZTR1-FLAG-R810W; LZTR1 RW; not shown: FLAG tag
binds: TRAPPC11 | CTDP1 | INTS1 | MYO10 | CDC42BPB
